The values below come from article PMC5587609.

Test [1] addresses TRPV6* (rat TRPV6 residues 1–668 with I62Y, L92N and M96Q; L495Q reverted to the native leucine) (rat) (UniProt Q9R186). Put plainly: SEC; FSEC traces of purified protein following tryptophan fluorescence; elution time corresponding to the tetrameric assembly. (SEC sorts molecules by how far they enter the pores of the column.)
The target is the same in test [2]. The test is described as follows: crystal structure; hanging drop, 20–24% PEG 350 MME, 50 mM NaCl, 50 mM Tris-HCl pH 8.0–8.5, 20 °C; also with 10 mM CaCl2 or 1 mM GdCl3; homotetramer.
Test [3] addresses TRPV6*-del1 (TRPV6* with four residues, 477–480, deleted in the S4–S5 linker) (rat) (UniProt Q9R186). The test is described as follows: SEC; FSEC traces of purified protein following tryptophan fluorescence; elution time corresponding to the tetrameric assembly.
The target of test [4] is TRPV6*-del2 (TRPV6* with six residues, 475–480, deleted in the S4–S5 linker) (rat) (UniProt Q9R186). Described as above.
Test [5] addresses TRPV6*-del3 (TRPV6* with eight residues, 473–480, deleted in the S4–S5 linker) (rat) (UniProt Q9R186). Described as above.
In test [6] the target is TRPV6*-del4 (TRPV6* with ten residues, 471–480, deleted in the S4–S5 linker) (rat) (UniProt Q9R186). Described as above.
The target of test [7] is TRPV6_(cryst) (rat TRPV6 residues 1–668 with I62Y, L92N, M96Q and L495Q) (rat) (UniProt Q9R186). Put plainly: crystal structure; hanging drop, 20–24% PEG 350 MME, 50 mM NaCl, 50 mM Tris-HCl pH 8.0–8.5, 20 °C; also with 10 mM CaCl2 or 1 mM GdCl3; homotetramer.

Regarding “TRPV6* (rat TRPV6 residues 1–668 with I62Y, L92N and M96Q; L495Q reverted to the native leucine) (from UniProt Q9R186 1-668)”, the stoichiometry N in test [1] and in test [2] was 4 in each case.

“TRPV6*-del1 (TRPV6* with four residues, 477–480, deleted in the S4–S5 linker) (from UniProt Q9R186 1-668)”: the stoichiometry N (in general, the number of molecules, sites or subunits per partner or assembly) in test [3] was 4.

In the case of “TRPV6*-del2 (TRPV6* with six residues, 475–480, deleted in the S4–S5 linker) (from UniProt Q9R186 1-668)”, the stoichiometry N in test [4] came to 4.

In turn, “TRPV6*-del3 (TRPV6* with eight residues, 473–480, deleted in the S4–S5 linker) (from UniProt Q9R186 1-668)” had a stoichiometry N in test [5] of 4.

Regarding “TRPV6*-del4 (TRPV6* with ten residues, 471–480, deleted in the S4–S5 linker) (from UniProt Q9R186 1-668)”, the stoichiometry N in test [6] turned out to be 4.

In test [7], “TRPV6_(cryst) (rat TRPV6 residues 1–668 with I62Y, L92N, M96Q and L495Q) (from UniProt Q9R186 1-668)” yielded a stoichiometry N of 4.
